Laboratory results published in patent publication US20260125454A1 (SHANGHAI JUNSHI BIOSCIENCES, published 2026).
Substitutions are numbered along the chain they refer to. Where two headings read alike, the source gives them in different places.

T1: Biotin-huCGRPaSA (human, not fully specified; biotin (position not given))
T1 construct: exact construct ('aSA') not explained; also called Biotin CGRPaSA; full-length (1-37) CGRP
T1 peptide: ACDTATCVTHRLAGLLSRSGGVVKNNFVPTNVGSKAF

T2: human β-CGRP (human, UniProt P10092 82-118, not fully specified)
T2 construct: mature; also called human full-length (1-37) β-CGRP polypeptide (Anaspec)
T2 peptide (looked up): T1 peptide with D3N, V22M, N25S

T3: synthetic human α-CGRP polypeptide (SEQ ID NO: 97)-NH2 (human, C-terminal phenylalanine amide (F-NH2); one intrachain disulfide bond between the two CYS residues (printed as positions 7 and 12))
T3 construct: Analyte in solution (50 nM) in the pH-dependence BLI assay
T3 peptide: T1 peptide

B1: C117 (antibody, V domains shown)
VH: EVQLQQSGPELVKPGASVKISCKASGYTFTDYNMHWVKQSHGKSLEWIGNIYPYNGGTVYNQKFNNKATLTVHTSSSTAYMDLRSLTSDDSAVYYCAREGLGGYWGQGTTLTVSS
VL: DIVLTQSPASLAVSLGQRATISCKASQNIDYDGYAYLNWYQQKPGQPPKVLIYSVFNLESGIPARFSGSGSGTDFTLNIHPVEEEDAATYYCQQSNEFPYTFGGGTKLEVK
notes: 2B8-HC1 + 1A2-LC2; chimeric, human constant regions
B2: 3E5 (antibody, V domains shown)
VH: B1 VH with A24T, N50Y, Y52S, V59A, N65K, N66F, A68S, H73D, D82E, D89E
VL: B1 VL with A35T, V55I, F98V, V110I
notes: murine hybridoma supernatant; also called hybridoma antibody 3E5
B3: C269 (antibody, V domains shown)
VH: B1 VH with A24T, N50Y, Y52S, V59A, N65K, N66F, A68S, H73D, D82E, D89E
VL: B1 VL with A35T, V55I, F98V, V110I
notes: 3E5-HC + 3E5-LC; chimeric, human constant regions
B4: hu224 (antibody, human IgG4 S228P, kappa, V domains shown)
VH: QVQLVQSGAEVKKPGASVKVSCKASGYSFTGYTMNWVRQAPGQRLEWMGLINPYIGNTHYNQKFKDRVTFTVDRSSSTAYMELSSLRSEDTAVYYCARELDSGFDYWGQGTLVTVSS
VL: DVVMTQSPDSLAVSLGERATINCRSSQNIVHSNGDTYLEWYQQKPGQPPKLLIYKVSNRFSGVPDRFSGSGSGTDFTLTISSLQAEDVAVYYCYQGSHVPWTFGQGTKLEIKR
B5: C79 (antibody, V domains shown)
VH: EVQLQQSGPELVKPGASVKISCKTSGYTFIDFNMHWVKQSHGKSLEWIGYIYPYNGDVVYNQNFTNKATLTVDSSSSTAYMELRRVTSEDSAIYYCAREGLGGYWGQGTTLTVSS
VL: DVVLTQSPTSLAVSLGQRATISCQASQNIDGNTYMNWYQQKPGQPPKVLIYSIFNLESGIPARFSGSGSGTHFTLTIHPVEEEDAATYYCQQSNDYPYTFGGGTKLEIK
notes: 1F5-HC + 2B8-LC2; chimeric, human constant regions
B6: C74 (antibody, V domains shown)
VH: B5 VH
VL: B1 VL with Y31F, L37M, Q42H, K49R, N96H, F98V, K107N, V110I
notes: 1F5-HC + 1F5-LC1; chimeric, human constant regions
B7: 3C1 (antibody, V domains shown)
VH: EVQLQQSGPELVKPGASMKISCKASGYSFTGYTMNWVKQSHGNNLEWIGLINPYIGNTHYNQKFKDKATFTVDRSSSTAYMALLSLTSEDSAVYYCARELDSGFDYWGQGTTLTVSS
VL: DVLMTQTPLSLPVSLGDQASLSCRSSQNIVHSNGDTYLEWYLQKPGQSPKLLIYKVSNRFSGVPDRFSGSGSGTDFTLKISRVEAEDLGVYYCYQGSHVPWTFGGGTKLEIK
notes: murine hybridoma supernatant; also called hybridoma antibody 3C1

What was measured:
[1] = biological target: CGRP antigen; assay: cell-based or functional assay
[2] = biological target: T1, Biotin-huCGRPaSA; assay: ELISA, transfection supernatant, biotin-CGRP on streptavidin
Protocol: Streptavidin was diluted to 0.5 μg/mL by using PBS (Hyclone) and added into a plate at 100 μL/well. The plate was incubated in a thermostat incubator at 37° C. for 90 min and then washed. 2% BSA was added to the plate at 200 μL/well, and the plate was incubated in the thermostat incubator at 37° C. for 90 min and washed. Biotin-huCGRPaSA was diluted to 2.0 μg/mL with 2% BSA and added into the plate at 100 μL/well, and the plate was incubated in the thermostat incubator at 37° C. for 60 min. The reference antibody (47-RM) was diluted to 2500 ng/ml with a diluent (2% BSA) and serially 4-fold diluted to 0.15 ng/mL, and the chimeric antibodies were diluted with a cell supernatant stock solution. All the chimeric antibody solutions and the reference antibody solution were added into plates at 80 μL/well, and the plates were incubated in a thermostat incubator at 37° C. for 60 min and washed. An HRP-conjugated mouse anti-human antibody IgG4 (manufacturer: Southern Biotech, Cat. No. 9200-05; Fc specificity) was diluted 5000-fold with 2% BSA and added into the plates at 100 μL/well, and the plates were incubated in the thermostat incubator at 37° C. for 60 min and washed. 0.1 mg/mL chromogenic reagent TMB was carefully added at 100 μL/well to avoid bubbles, and the system was incubated at 37° C. for 10 min away from light for chromogenic reaction. Finally, a 2 M hydrochloric acid solution was added at 100 μL/well to stop the reaction while avoiding bubbles, and the plates were read on a microplate reader within 10 min (the detection wavelength was 450 nm; the reference wavelength was 620 nm).

[3] = biological target: T1, Biotin-huCGRPaSA; assay: ELISA, purified antibody; relative to reference 47-RM-20190815
Protocol: Streptavidin was diluted to […] by using PBS (Hyclone) and added into a plate at 100 μL/well. The plate was incubated in a thermostat incubator at 37° C. for 90 min and then washed. 2% BSA was added to the plate at 200 μL/well, and the plate was incubated in the thermostat incubator at 37° C. for 90 min and washed. Biotin-huCGRPaSA was diluted to 2.0 μg/mL with 2% BSA and added into the plate at 100 μL/well, and the plate was incubated in the thermostat incubator at 37° C. for 60 min. The chimeric antibodies in Table 3 and reference antibody (47-RM-20190815) were diluted to 1000 ng/ml with a diluent (2% BSA) and serially 10-fold diluted to 1 ng/mL. All the chimeric antibody solutions and the reference antibody solution were added into plates at 100 μL/well, and the plates were incubated in a thermostat incubator at 37° C. for 60 min and washed. An HRP-conjugated mouse anti-human antibody IgG4 (manufacturer: Southern Biotech, Cat. No. 9200-05; Fc specificity) was diluted 5000-fold with 2% BSA and added into the plates at 100 μL/well, and the plates were incubated in the thermostat incubator at 37° C. for 60 min and washed. 0.1 mg/mL chromogenic reagent TMB was carefully added at 100 μL/well to avoid bubbles, and the system was incubated at 37° C. for 5 min away from light for chromogenic reaction. Finally, a 2 M hydrochloric acid solution was added at 100 μL/well to stop the reaction while avoiding bubbles, and the plates were read on a microplate reader within 10 min (the detection wavelength was 450 nm; the reference wavelength was 620 nm). EC₅₀ was fit by using a four-parameter logistic regression (4PL) model.

[4] = biological target: T2, human β-CGRP; assay: ELISA, hybridoma supernatant
[5] = biological target: CGRP antigen; assay: cell-based or functional assay; remark: listed apart in the source
[6] = biological target: T3, synthetic human α-CGRP polypeptide (SEQ …); assay: BLI (Octet), antibody on AHC2, 50 nM CGRP; association pH 7.4, dissociation pH 7.4
Protocol: (§1) The association/dissociation profiles for three antibodies Hu224, galcanezumab analogue and fremanezumab analogue binding to the antigen human α-CGRP in solutions at different pH (7.4 and 5.5) were determined on an Octet RBD96e system. The pH 7.4 buffer contained 10 mM HEPES (pH 7.4), 150 mM sodium chloride, 3 mM EDTA, and 0.05% P20. The pH 5.5 buffer contained 10 mM NaAc (pH 5.5), 150 mM sodium chloride, and 0.05% P20. The three antibodies Hu224, galcanezumab analogue, and fremanezumab analogue were immobilized on the surfaces of AHC2 bioprobes (Sartorius, Cat. No. 18-5142) at 10 μg/mL, respectively. 50 nM human α-CGRPs diluted in different pH (7.4 and 5.5) buffers were used to bind to the antibodies during the 0 to 200 s antigen association phase, and different pH (7.4 and 5.5) buffers were used to wash during the 0 to 200 s antigen dissociation phase. The conditions were pH 7.4 association and pH 7.4 dissociation, pH 7.4 association and pH 5.5 dissociation, and pH 5.5 association and pH 5.5 dissociation. The binding signals of the antigen at the time of injection for 200 s were calculated using analytical software and fitted to give the dissociation constant kd. The amino acid sequence of the synthetic human α-CGRP polypeptide fragment is […] […]

[7] = biological target: T3, synthetic human α-CGRP polypeptide (SEQ …); assay: BLI (Octet), antibody on AHC2, 50 nM CGRP; association pH 5.5, dissociation pH 5.5
Protocol: as §1

[8] = biological target: CGRP antigen; assay: cell-based or functional assay; remark: listed apart in the source
[9] = biological target: T1, Biotin-huCGRPaSA; assay: ELISA, supernatant; relative to chimeric C245
Summary of the method: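 Plates coated with biotin-CGRPaSA at 1.0 μg/mL (90 min, 37°C) and blocked with 2% BSA. Humanized antibodies and chimeric C245 reference, 2.5-fold serial dilutions from 1000 ng/mL, bound 60 min at 37°C. Detection by HRP anti-human IgG (Fc), TMB 15 min, read at 450/620 nm.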

[10] = biological target: T3, synthetic human α-CGRP polypeptide (SEQ …); assay: BLI (Octet), antibody on AHC2, 50 nM CGRP; association pH 7.4, dissociation pH 5.5
Protocol: as §1

[11] = biological target: CGRP antigen; assay: cell-based or functional assay; remark: listed apart in the source

Row | Binder | Relative binding activity (%) vs Ref(Teva) [1] [%] | OD value [2] [OD] | Relative activity (%) [3] [%] | also measured
1 | B1 | 74.1 | 3.06 | 31.7 | –
2 | B2 | – | – | – | binding result [4]: binds
3 | B3 | – | 2.91 | 101 | EC50 (so labelled in the table under the curves; half-maximal inhibition of the CGRP-induced luciferase signal in SK-N-MC CRE 2E9 reporter cells, CGRP antigen at 4 ng/mL) [5]: 0.143 µg/mL
4 | B4 | – | – | – | koff [6]: 0.000265 s⁻¹; koff [7]: 0.0141 s⁻¹; IC50 [8]: 0.0224 µg/mL; relative activity (%) vs C245 [8]: 80%; Relative binding activity, % [9]: 82%; koff [10]: 0.0143 s⁻¹
5 | B5 | 71.1 | 3.03 | 59.8 | Relative binding activity (%) vs Ref(Teva) [11]: 71.1%
6 | B6 | 76 | 3.06 | 39.5 | –
7 | B7 | – | – | – | binding result [4]: binds
